Our source for the Ki values is patent US20240245793A1, “PSD-95 INHIBITORS AND USES THEREOF” (priority 2021, published 2024).

The labels stand for the following.
B1: compound 13, NPEG4-(KETTV)2 fused to L-TAT (Ac-[…]-) (peptide)
peptide: KETTV
chain: […]
modifications: not checked
B2: compound 17, NPEG4-(KETRV)2 fused to L-TAT (Ac-[…]-) (peptide)
peptide: KETRV
chain: […]
modifications: not checked
B3: compound 15, NPEG4-(KETVV)2 fused to L-TAT (Ac-[…]-) (peptide)
peptide: KETVV
chain: […]
modifications: not checked
B4: compound 19, NPEG4-(ISTDV)2 fused to L-TAT (Ac-[…]-) (peptide)
peptide: ISTDV
chain: […]
modifications: not checked
B5: compound 21, NPEG4-(VETVV)2 fused to L-TAT (Ac-[…]-) (peptide)
peptide: VETVV
chain: […]
modifications: not checked
B6: compound 11, NPEG4-(KETLV)2 fused to L-TAT (Ac-[…]-) (peptide)
peptide: KETLV
chain: […]
modifications: not checked

Chain of PDZ1-2 of PSD-95 (postsynaptic density protein-95), P78352 (P78352 61-249 limits assumed): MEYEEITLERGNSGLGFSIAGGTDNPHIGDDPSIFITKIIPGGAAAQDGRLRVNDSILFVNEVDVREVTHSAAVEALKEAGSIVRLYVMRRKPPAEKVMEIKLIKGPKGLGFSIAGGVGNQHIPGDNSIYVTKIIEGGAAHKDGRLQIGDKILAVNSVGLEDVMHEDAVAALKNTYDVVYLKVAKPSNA

The assay has as its target PDZ1-2 of PSD-95 (postsynaptic density protein-95), P78352. The assay is described as follows: FP competition against fluorescent dimeric probe, Ki from IC50.
Consider B1, for which the Ki (commonly a dissociation constant, usually derived from enzyme kinetics or from competition with a known ligand) amounted to 6.5 nM.
In turn, B2 showed a Ki of 6.6 nM.
Take B3: the inhibitory constant (Ki) turned out to be 2.1 nM.
Under B4 stands 36.1 nM; under B5, 15.8 nM; under B6, 5.4 nM.
